Experimental data reported in patent US20090081195A1 (OTTAWA HEALTH RESEARCH INSTITUTE, published 2009).

T1: GST-SLK 950-1202 (GST-tagged SLK ATH domain) (murine, UniProt O54988 981-1233)
T1 construct: Bacterially expressed GST fusion on glutathione sepharose; also called GST-ATH; not shown: glutathione S-transferase (GST) tag of pGEX-5X or pGEX-4T1 (Amersham)
T1 sequence: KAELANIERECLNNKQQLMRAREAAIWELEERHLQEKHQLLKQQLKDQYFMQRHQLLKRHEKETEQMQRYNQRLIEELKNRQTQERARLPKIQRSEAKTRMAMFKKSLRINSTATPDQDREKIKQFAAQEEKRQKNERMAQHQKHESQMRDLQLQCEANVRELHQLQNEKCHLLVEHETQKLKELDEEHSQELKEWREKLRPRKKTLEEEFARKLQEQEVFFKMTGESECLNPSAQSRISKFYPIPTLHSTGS

B1: HA-Ldb2 DD (aa 1-186) (other, mouse, UniProt O55203 1-186, looked up, not shown: small tags and cut ends)
chain: MSSTPHDPFYSSPFGPFYRRHTPYMVQPEYRIYEMNKRLQSRTEDSDNLWWDAFATEFFEDDATLTLSFCLEDGPKRYTIGRTLIPRYFSTVFEGGVTDLYYILKHSKESYHNSSITVDCDQCAMVTQHGKPMFTKVCTEGRLILEFTFDDLMRIKTWHFTIRQYRELVPRSILAMHAQDPQVLDQ
modifications: [35S]-methionine label
notes: In vitro translated; also called Ldb2 dimerization domain
B2: HA-Ldb2 LBD (aa 298-373) (other, mouse, UniProt O55203 298-373, looked up, not shown: small tags and cut ends)
chain: DVMVVGEPTLMGGEFGDEDERLITRLENTQYDAANGMDDEEDFNNSPALGNNSPWNSKPPATQETKSENAPPQASQ
modifications: [35S]-methionine label
notes: In vitro translated
B3: HA-Ldb2 NLS (aa 188-288) (other, mouse, UniProt O55203 188-288, looked up, not shown: small tags and cut ends)
chain: SKNITRMGLTNFTLNYLRLCVILEPMQELMSRHKTYNLSPRDCLKTCLFQKWQRMVAPPAEPTRQPTTKRRKRKNSTSSTSNSSAGNTTNSAGSKKKTPAA
modifications: [35S]-methionine label
notes: range 188-288; In vitro translated; also called Ldb2 nuclear localization signal domain

What follows are binders tested against T1, GST-SLK 950-1202 (GST-tagged SLK ATH …) (assay: binding of [35S]-labeled Ldb2 deletions to GST-ATH).
Protocol: (c) Schematics of Myc epitope-tagged SLK deletion mutants. […] (d) Co-transfection of HA-tagged Ldb2 and Myc-tagged SLK deletion constructs was performed in HEK 293 cells. Extracts were immunoprecipitated with anti-HA antibody (12CA5) and immunoblotted with anti-Myc antibody (9E10) (bottom panel). Expression of the transfected constructs was confirmed by western blotting (top and middle panels). […] (e) Reciprocal co-IP showing that full length HA-SLK associates with Myc-Ldb1 and 2. (f) Association of endogenous SLK and Ldb. Ldb1 was immunoprecipitated from protein lysates obtained from MEF cells and primary neurons and subjected to western blot analysis with an anti-SLK antibody. A 220 KDa band corresponding to SLK co-precipitated with […]. Reciprocal immunoprecipitations were also performed on N1E 115 neuroblastoma cells or primary cortical neurons. A 50 Kda band corresponding to Ldb1 co-precipitated with SLK. As a control for non-specific binding to the sepharose beads, protein-A sepharose beads alone were added to 400 μg of the same protein lysates. Similar results were obtained with Ldb2
To map the Ldb1/2 domains of interaction, [35S]-labeled deletions of Ldb1 were assayed for binding to a GST-tagged SLK ATH domain (FIG. 17a). […] In addition, versions of Ldb2 lacking the C-terminal LIM binding domain (ΔLBD) were able to bind the SLK ATH domain while the LBD of Ldb2 by itself could not bind (FIG. 17b). Further deletion of 62 amino acids from the carboxy terminal end of the dimerization domain (DDΔC) retained binding thus refining the Ldb2 binding region to the SLK ATH domain in the C-terminal 124 amino acids of Ldb2. An analogous set of Ldb1 deletion mutants were tested for binding to GST-ATH with similar results (data not shown).

Does B1 bind?
Result: binds

Does B2 bind?
Result: no binding

Does B3 bind?
Result: binds
